Laboratory results: PMC7597377 (Science signaling, 2020)
Like-named read-outs stand apart in the source and are kept apart here.

How the values were obtained:
Assay in all cases: FRET or BRET
[1] = biological target: T1, ERα ligand-binding domain, wild type (ERα-LBD-biotin) (human, biotin)
[2] = biological target: T2, ERα ligand-binding domain Q375K (ERα-LBD-biotin) (human, biotin)
[3] = biological target: T3, ERα ligand-binding domain Q375E (ERα-LBD-biotin) (human, biotin)
[4] = biological target: T4, ERα ligand-binding domain Q375A (ERα-LBD-biotin) (human, biotin)
[5] = biological target: T1, ERα ligand-binding domain, wild type …; remark: listed apart in the source
[6] = biological target: T2, ERα ligand-binding domain Q375K …; remark: listed apart in the source
[7] = biological target: T3, ERα ligand-binding domain Q375E …; remark: listed apart in the source
[8] = biological target: T4, ERα ligand-binding domain Q375A …; remark: listed apart in the source
[9] = biological target: T1, ERα ligand-binding domain, wild type …; remark: listed apart in the source
[10] = biological target: T2, ERα ligand-binding domain Q375K …; remark: listed apart in the source
[11] = biological target: T3, ERα ligand-binding domain Q375E …; remark: listed apart in the source
[12] = biological target: T4, ERα ligand-binding domain Q375A …; remark: listed apart in the source
[13] = biological target: T1, ERα ligand-binding domain, wild type …; remark: listed apart in the source
[14] = biological target: T2, ERα ligand-binding domain Q375K …; remark: listed apart in the source
[15] = biological target: T3, ERα ligand-binding domain Q375E …; remark: listed apart in the source
[16] = biological target: T4, ERα ligand-binding domain Q375A …; remark: listed apart in the source
[17] = biological target: T1, ERα ligand-binding domain, wild type …; remark: listed apart in the source
[18] = biological target: T2, ERα ligand-binding domain Q375K …; remark: listed apart in the source
[19] = biological target: T3, ERα ligand-binding domain Q375E …; remark: listed apart in the source
[20] = biological target: T4, ERα ligand-binding domain Q375A …; remark: listed apart in the source
[21] = biological target: T1, ERα ligand-binding domain, wild type …; remark: listed apart in the source
[22] = biological target: T2, ERα ligand-binding domain Q375K …; remark: listed apart in the source
[23] = biological target: T3, ERα ligand-binding domain Q375E …; remark: listed apart in the source
[24] = biological target: T4, ERα ligand-binding domain Q375A …; remark: listed apart in the source

Kd [1]: 6.4 nM | Kd [2]: 2.1 nM | fold reduction in SRC1 binding vs WT ER (Kd mutant/Kd WT) [3]: 3.4 fold | fold reduction in SRC1 binding vs WT ER (Kd mutant/Kd WT) [4]: 8 fold | Kd [5]: 3 nM | Kd [6]: 1.6 nM | fold reduction in SRC1 binding vs WT ER (Kd mutant/Kd WT) [7]: 8.7 fold | fold reduction in SRC1 binding vs WT ER (Kd mutant/Kd WT) [8]: 16 fold | Kd [9]: 6.8 nM | Kd [10]: 2.2 nM | fold reduction in SRC1 binding vs WT ER (Kd mutant/Kd WT) [11]: 2.8 fold | fold reduction in SRC1 binding vs WT ER (Kd mutant/Kd WT) [12]: 8.8 fold | Kd [13]: 3.5 nM | Kd [14]: 1.5 nM | fold reduction in SRC1 binding vs WT ER (Kd mutant/Kd WT) [15]: 7.4 fold | fold reduction in SRC1 binding vs WT ER (Kd mutant/Kd WT) [16]: 21 fold | fold increase in SRC1 binding with ligand vs E2 (Kd E2/Kd compound) [17]: 0.3 fold | fold increase in SRC1 binding with ligand vs E2 (Kd E2/Kd compound) [18]: 0.16 fold | fold reduction in SRC1 binding vs WT ER (Kd mutant/Kd WT) [18]: 0.62 fold | fold reduction in SRC1 binding vs WT ER (Kd mutant/Kd WT) [19]: 4.2 fold | fold reduction in SRC1 binding vs WT ER (Kd mutant/Kd WT) [20]: 5.5 fold | Kd [21]: 3.4 nM | Kd [22]: 1.7 nM | fold reduction in SRC1 binding vs WT ER (Kd mutant/Kd WT) [23]: 11 fold | fold reduction in SRC1 binding vs WT ER (Kd mutant/Kd WT) [24]: 17 fold
B1: SRC1 NR interaction domain (ca. 200 amino acids), FRET acceptor-labeled (domain or fragment)
chain: PSRLNIQPAKAESKDNKEIASILNEMIQSDNSSSDGKPLDSGLLHNNDRLSDGDSKYSQTSHKLVQLLTTTAEQQLRHADIDTSCKDVLSCTGTSNSASANSSGGSCPSSHSSLTERHKILHRLLQEGSPSDITTLSVEPDKKDSASTSVSVTGQVQGNSSIKLELDASKKKESKDHQLLRYLLDKDEKDLRSTPNLSLDDVKVKVEKKEQ
modifications: FRET acceptor label (not named)
